This note sets out measurements from PMC9279676, “ERK2 MAP kinase regulates SUFU binding by multisite phosphorylation of GLI1” (Life Science Alliance, 2022).

In test [1] the target is T1, GST-GLI1^S116, phosphorylated by ERK2 (human, UniProt P08151-1 68-232, S70A | S86A | S102A | S130A | S146A | S201A, phosphorylated by ERK2; only intact SP site S116).
T1 sequence: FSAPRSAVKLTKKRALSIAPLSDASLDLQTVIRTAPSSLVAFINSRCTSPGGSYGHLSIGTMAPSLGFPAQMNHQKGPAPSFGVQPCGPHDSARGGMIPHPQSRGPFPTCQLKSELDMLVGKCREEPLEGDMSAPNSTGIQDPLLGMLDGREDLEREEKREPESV
In words: GLI1 phosphorylated by ERK2.

Test [2] deals with T2, GST-GLI1^S116,S130, phosphorylated by ERK2 (human, UniProt P08151-1 68-232, S70A | S86A | S102A | S146A | S201A, phosphorylated by ERK2; intact SP sites S116, S130).
T2 sequence: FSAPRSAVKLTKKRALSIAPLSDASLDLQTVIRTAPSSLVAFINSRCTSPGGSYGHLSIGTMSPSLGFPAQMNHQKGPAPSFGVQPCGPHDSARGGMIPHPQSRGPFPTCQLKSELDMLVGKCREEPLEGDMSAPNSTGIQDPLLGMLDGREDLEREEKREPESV
Kind of test: GLI1 phosphorylated by ERK2.

Test [3] addresses T3, GST-GLI1^S130, phosphorylated by ERK2 (human, UniProt P08151-1 68-232, S70A | S86A | S102A | S116A | S146A | S201A, phosphorylated by ERK2; only intact SP site S130).
T3 sequence: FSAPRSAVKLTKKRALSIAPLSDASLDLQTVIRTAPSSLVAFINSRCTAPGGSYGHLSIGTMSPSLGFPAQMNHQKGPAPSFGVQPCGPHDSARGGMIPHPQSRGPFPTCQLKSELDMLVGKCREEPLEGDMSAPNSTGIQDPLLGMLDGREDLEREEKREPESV
In words: GLI1 phosphorylated by ERK2.

For test [4], the target named is phosphorylated single and double-phosphosite mutants. Kind of test: pull-down; purified GST-GLI1_(68-232) variants (mock treated or ERK2 phosphorylated), 0 or 1.25-80 nM, on glutathione-Sepharose beads; ∼1 pmol 35S-SUFU in 200 μl; 15 min at 30°C, then 1 h at room temperature; Binding Buffer (20 mM Tris-HCl pH 7.5, 125 mM KOAc, 0.5 mM EDTA, 5 mM DTT, 0.1% Tween20, 12.5% glycerol) + 1 mg/ml BSA; bound SUFU quantified by SDS-PAGE and Phosphorimager; Kd from binding isotherms.

For test [5], the target named is the three “two sites only”-intact mutants, ERK2-phosphorylated. The test is described as above.
The target in test [6] is T4, GST-GLI1^S116,S130 (GST-GLI1_(68-232), only S116 and S130 intact), mock treated (human, UniProt P08151-1 68-232, S70A | S86A | S102A | S146A | S201A).
T4 sequence: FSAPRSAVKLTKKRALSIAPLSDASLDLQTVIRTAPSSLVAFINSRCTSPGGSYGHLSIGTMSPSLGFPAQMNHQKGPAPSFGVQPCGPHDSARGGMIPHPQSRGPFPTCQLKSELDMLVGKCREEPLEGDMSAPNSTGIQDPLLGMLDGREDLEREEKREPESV
Kind of test: mock treated.

Test [7] deals with T5, GST-GLI1^S102,S116 (GST-GLI1_(68-232), only S102 and S116 intact), mock treated (human, UniProt P08151-1 68-232, S70A | S86A | S130A | S146A | S201A).
T5 sequence: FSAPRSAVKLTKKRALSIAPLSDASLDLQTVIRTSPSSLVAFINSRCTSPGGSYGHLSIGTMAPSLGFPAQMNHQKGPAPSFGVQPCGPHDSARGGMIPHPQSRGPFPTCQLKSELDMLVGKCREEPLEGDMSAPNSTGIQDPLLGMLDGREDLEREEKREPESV
Kind of test: mock treated.

Test [8] deals with T6, GST-GLI1^S116, phosphorylated by ERK2 (human, UniProt P08151-1 68-232, S70A | S86A | S102A | S130A | S146A | S201A, phosphorylated by ERK2; only intact SP site S116).
T6 construct: only the SP site S116 intact; also called ERK2-treated GLI1^S116; source: bacteria, purified (glutathione-Sepharose); then phosphorylated with purified active ERK2
T6 sequence (looked up): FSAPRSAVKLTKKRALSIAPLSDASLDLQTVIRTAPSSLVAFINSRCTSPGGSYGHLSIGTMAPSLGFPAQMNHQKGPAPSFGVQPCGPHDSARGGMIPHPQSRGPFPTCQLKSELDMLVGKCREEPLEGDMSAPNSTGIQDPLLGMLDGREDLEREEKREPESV
In words: pull-down; purified GST-GLI1_(68-232) variants (mock treated or ERK2 phosphorylated), 0 or 1.25-80 nM, on glutathione-Sepharose beads; ∼1 pmol 35S-SUFU in 200 μl; 15 min at 30°C, then 1 h at room temperature; Binding Buffer (20 mM Tris-HCl pH 7.5, 125 mM KOAc, 0.5 mM EDTA, 5 mM DTT, 0.1% Tween20, 12.5% glycerol) + 1 mg/ml BSA; bound SUFU quantified by SDS-PAGE and Phosphorimager; Kd from binding isotherms. The following applies: one partner purified.

In test [9] the target is T7, GST-GLI1^S130, phosphorylated by ERK2 (human, UniProt P08151-1 68-232, S70A | S86A | S102A | S116A | S146A | S201A, phosphorylated by ERK2; only intact SP site S130).
T7 construct: only the SP site S130 intact; also called ERK2-treated GLI1^S130; source: bacteria, purified (glutathione-Sepharose); then phosphorylated with purified active ERK2
T7 sequence (looked up): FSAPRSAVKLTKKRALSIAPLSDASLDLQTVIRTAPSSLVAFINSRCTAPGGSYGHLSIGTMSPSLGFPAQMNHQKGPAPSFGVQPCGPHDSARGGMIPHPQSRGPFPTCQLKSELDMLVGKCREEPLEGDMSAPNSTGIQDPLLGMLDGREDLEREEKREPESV
The test is described as above. The following applies: one partner purified.

The target of test [10] is T8, GST-GLI1_(68-232), wild type, phosphorylated by ERK2 (human, UniProt P08151-1 68-232, phosphorylated by ERK2 to ∼3 mol phosphate per mole; most efficient sites Ser116 and Ser130, followed by Ser102 and Ser201).
T8 construct: vector pGEX-LB; also called ERK2-phosphorylated GLI1; WT + ERK2; source: bacteria, purified (glutathione-Sepharose); then phosphorylated with purified active ERK2 (2 h, 30°C)
T8 sequence (looked up): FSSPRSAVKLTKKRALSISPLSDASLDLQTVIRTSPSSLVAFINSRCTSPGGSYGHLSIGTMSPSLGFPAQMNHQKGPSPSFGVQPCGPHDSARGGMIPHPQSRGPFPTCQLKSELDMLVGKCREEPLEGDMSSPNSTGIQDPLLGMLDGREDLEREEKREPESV
The test is described as above. The note with it: one partner purified.

B1: full-length human SUFU protein, 35S-radiolabeled (natural protein, UniProt Q9UMX1-1 1-484, looked up)
chain: MAELRPSGAPGPTAPPAPGPTAPPAFASLFPPGLHAIYGECRRLYPDQPNPLQVTAIVKYWLGGPDPLDYVSMYRNVGSPSANIPEHWHYISFGLSDLYGDNRVHEFTGTDGPSGFGFELTFRLKRETGESAPPTWPAELMQGLARYVFQSENTFCSGDHVSWHSPLDNSESRIQHMLLTEDPQMQPVQTPFGVVTFLQIVGVCTEELHSAQQWNGQGILELLRTVPIAGGPWLITDMRRGETIFEIDPHLQERVDKGIETDGSNLSGVSAKCAWDDLSRPPEDDEDSRSICIGTQPRRLSGKDTEQIRETLRRGLEINSKPVLPPINPQRQNGLAHDRAPSRKDSLESDSSTAIIPHELIRTRQLESVHLKFNQESGALIPLCLRGRLLHGRHFTYKSITGDMAITFVSTGVEGAFATEEHPYAAHGPWLQILLTEEFVEKMLEDLEDLTSPEEFKLPKEYSWPEKKLKVSILPDVVFDSPLH
modifications: [35S]-methionine label
notes: human SUFU, full length, residues 1-484, from plasmid pGEM4Z-SUFU; also called 35S-SUFU; radiolabeled SUFU; source: in vitro transcription and translation (SP6, Promega), partially purified by ammonium sulfate precipitation
Take B1: the Kd is 36 nM in test [1]; 53 nM in test [2]; 16 nM in test [3]; 53 nM in test [4]; 11 nM in test [6]; 6 nM in [7]. The fold increase of Kd after ERK2-mediated phosphorylation in test [5] fell in the range of 4.8 to 8.3 fold. The “fold increase of Kd upon phosphorylation” value in test [8] amounted to 2.6 fold. The “fold reduction in affinity after ERK2 treatment” value in test [9] was 1.3 fold. Moreover, the “fold increase of Kd against unphosphorylated GLI1” value in test [10] was approximately 30 fold. Moreover, the “fold weakening of Kd against unphosphorylated GLI1” value in test [10] was more than 30 fold.

As usually defined, the Kd is the constant that tells how readily two partners part at equilibrium.
